Among the data in publication PMC7393112 are Km, kcat and kcat/Km values, retold here.

Substrate in the data set: C[C@@H](O)C(=O)O
Kind of data set: purified protein. Conditions: DCIP as co-substrate, D-lactate 5-300 µM, pH of the kinetic assay not given (optimum pH 8.75).

B1: OsD-LDH2 (Oryza sativa Japonica Group) (protein)
chain: MARRAAAGLLRRHLGPLAAGETLQARGMYPKQYGAANHAFSRFYSIQGQQRSLYGFRTNVETDDTQQSARMNFEVQKRSFSSAAAHVQRNPAYSVLNSDDVSYFKSILGDSGVVQDEDRVSVANMDWMGKYKGSSQLLLLPKSTAEVSKILSYCNSRRLAVVPQGGNTGLVGGSVPVYDEVIISLGGMDKIITFDNVNGILTCEAGCVLENLSSYVENKGFIMPLDLGAKGSCHIGGNISTNAGGLRFIRYGSLHGSVLGLEVVLADGTVLDMLTTLRKDNTGYDLKHLFIGSEGSLGIVTKIAILTPAKLPSTNVAFLSCNDYISCQKLLLAARRSLGEILSAFEFMDRHCINLAMKYLEGVHNPLPVSPFNFYVLIETTGSDESYDKAKLEAFLLRSMEDGLVADGVIAQDISQASNFWRIREGISEASVKVGAVYKYDLSIPVEKLYDIVEEMRSRVGDMGQVLGYGHLGDGNLHLNILSTKYSDKMLAQIEPFVYEWTSKQRGSISAEHGLGLMKAEKIHYSKSSEAVQLMASIKKLLDPNSILNPYKVLPQSVL
On to B1, for which the Km came to 8.045 ± 1.7 µM, the turnover number (kcat) came out at 3.27 s⁻¹ and the kcat/Km was found to be 407000 M⁻¹ s⁻¹.

A word on the Km: it is the concentration of substrate that gives half-maximal velocity. Broadly, the kcat is the number of substrate molecules converted per active site and unit of time at saturation. Usually kcat/Km stands for the second-order rate constant that governs catalysis at low substrate concentration.
